Data: patent US20210079109A1 (Regeneron, published 2021)
Numbering of substitutions follows the chain as printed.

T1: human CD63 (human, UniProt P08962 2-238)
T1 construct: stably transfected in NIH3T3/hCD63; The cell line is named under assay; also called hCD63
T1 sequence: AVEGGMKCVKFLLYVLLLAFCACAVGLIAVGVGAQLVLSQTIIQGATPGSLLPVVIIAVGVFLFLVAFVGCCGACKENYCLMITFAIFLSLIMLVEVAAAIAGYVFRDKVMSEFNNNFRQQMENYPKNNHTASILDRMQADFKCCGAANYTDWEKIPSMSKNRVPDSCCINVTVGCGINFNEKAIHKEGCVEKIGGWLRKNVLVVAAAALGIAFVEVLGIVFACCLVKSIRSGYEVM

B1: H2M12450N (antibody, V domains shown)
VH: QVQLQESGPKVVKPSETLSLTCTVSGGSISSYYWNWIRQSPGKGLEWIGYTKRGYTDYNPSLRSRVTISEDTSKNQFSLRISSVTAADTAVYYCAQMGWGSHAFDMWGQGTMVAVSS
VL: EIVLTQSPGTLSLSPGERATLSCRASQSVNSRYLAWYQQKPGQAPRLLIYGASSRATGIPDRCSGSGSGTDFTLTISRLEPEDFAVYYCQQYGSSPWTFGQGTKVEIK
notes: also called H2aM12450N; mAb12450
B2: H1M12451N (antibody, V domains shown)
VH: QVQLQESGPGLMKPSETLSLTCTVSGGSFSSYYWNWIRQSPGKGLEWIGYIRYSGDTNYKPSLKSRFTISIDTSKNLFSLRLKSVTAADTAVYYCARMGLGSDAFDIWGQGTMVTVSS
VL: B1 VL with S31N, R32N, A52V, S53F, S54N, G58N, C63F
B3: H2M12395N (antibody, V domains shown)
VH: QVQLQESGPRLVKPSETLSLTCIVSGGSISNFYWNWIRQSPGKGLEWIGYFFYTGTIDYNPSLKSRVTISLDTSKNQFSLNLRLLTAADAAVYYCARMGLGANAFDIWGHGTMVTVSS
VL: B1 VL with S28H, N30S, R32N, A52G, C63F, E82A, Y87F, S94N, I107M
notes: also called H2aM12395N

Experiments:
human CD63 [1] = target: T1, human CD63; assay: ECL, NIH3T3/hCD63 cells
In short: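 Detached cells (~2.0×10⁴/well: NIH3T3/hCD63, LNCAP, U87MG, or parental NIH3T3 as negative control) were plated on carbon-electrode plates and blocked with 2% BSA. Anti-CD63 or isotype antibodies (1.7 pM–100 nM, in duplicate) were bound 1 h at RT, then washed. Signal read as electrochemiluminescence.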

[2] = target: T2, recombinant human CD63 extracellular loop 2 expressed with a C-terminal human Fc tag (human); assay: SPR Biacore, mAb captured, 25C
T2 construct: also called hCD63 EC loop 2-hFc; human CD63 EC loop 2-Fc
In short: (§1)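 Anti-CD63 mAbs captured on anti-mouse Fc or anti-human Fab surfaces; CD63 EC2 reagents flowed in HBS-ET, pH 7.4, at 25° C or 37° C. ka and kd from 1:1 binding model with mass transport limitation; KD and t½ calculated from kinetic rates.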

[3] = target: T3, recombinant human CD63 extracellular loop 2 expressed with a C-terminal Myc-Myc-hexahistidine (human); assay: SPR Biacore, mAb captured, 25C
T3 construct: also called hCD63 EC loop 2-MMH; human CD63 EC loop 2-MMH
In short: as §1

human CD63 [4] = target: T1, human CD63; assay: flow cytometry, HEK293 cells
Procedure: Relative cell surface binding of the anti-CD63 antibodies to human CD63 expressing cells was accessed via flow cytometry using CD63 positive HEK293 cells (ATCC, Cat #CRL-1573), which endogenously express human CD63, and CD63 negative HEK293/CD63 knock out cells. For the assay, cells were plated in PBS without calcium and magnesium (VWR, Cat #45000-446), containing 2% FBS (Saradigm Cat #1500-500) (Staining Buffer) in 96 well V-bottom plates (Axygen Scientific, Cat #P-96-450-V-C-S). Cells were then incubated with anti-CD63 antibodies or isotype control antibodies at concentrations ranging from 100 nM to 1.7 pM for 30 minutes on ice. Wells containing no antibody were used as controls. HEK293/CD63KO cells were stained with only the highest concentration (100 nM) of the antibodies. […] Cells were then washed and fixed using a 50% solution of Cytofix (BD Biosciences, Cat #554655) diluted in PBS. Samples were run on the Intellicyte Hypercyt flow cytometer and results were analyzed in ForeCyt software (Intellicyte) to calculate the mean fluorescent intensity (MFI). Measured values were analyzed using a four parameter logistic equation over a 12-point response curve using GraphPad Prism and the resulting EC₅₀ values are reported (Table 12). The signal to noise ratio (S/N) was determined by calculating the ratio of the anti-CD63 antibodies or the control antibodies MFI to the wells containing no antibodies (Table 12).

T2 sequence (chain, as listed by the source limits assumed): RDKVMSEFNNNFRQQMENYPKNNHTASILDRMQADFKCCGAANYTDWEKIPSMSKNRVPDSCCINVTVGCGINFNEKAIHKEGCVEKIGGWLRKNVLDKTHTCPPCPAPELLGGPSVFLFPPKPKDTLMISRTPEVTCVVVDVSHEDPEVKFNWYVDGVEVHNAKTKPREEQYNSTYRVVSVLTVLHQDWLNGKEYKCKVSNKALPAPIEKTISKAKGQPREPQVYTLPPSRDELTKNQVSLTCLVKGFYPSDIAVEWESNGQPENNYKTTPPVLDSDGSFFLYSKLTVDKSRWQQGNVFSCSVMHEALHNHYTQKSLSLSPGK
T3 sequence (chain, as listed by the source limits assumed): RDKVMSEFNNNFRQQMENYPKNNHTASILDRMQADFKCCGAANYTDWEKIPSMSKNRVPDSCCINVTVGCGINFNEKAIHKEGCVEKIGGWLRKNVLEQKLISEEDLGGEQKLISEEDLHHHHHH

Binder | EC50 (human CD63 [1]) | binding ratio at 3.7 nM vs NIH3T3 (human CD63 [1]) | 100 nM Ag Bound (RU) [2] | Kd [2] | koff [2] | kon [2] | t1/2 [2] | 100 nM Ag Bound (RU) [3] | Kd [3] | koff [3] | kon [3] | t1/2 [3] | EC50 (human CD63 [4]) | S/N (MFI over no-antibody wells) (human CD63 [4])
B1 | 0.97 nM | 281 fold | 134 RU | 0.15 nM | 4.66e-05 s⁻¹ | 320000 M⁻¹ s⁻¹ | 248 min | 65 RU | 1.23 nM | 0.000279 s⁻¹ | 227000 M⁻¹ s⁻¹ | 41 min | 0.5 nM | 26.7
B2 | 0.29 nM | 256 fold | 107 RU | 0.704 nM | 8.4e-05 s⁻¹ | 119000 M⁻¹ s⁻¹ | 138 min | 52 RU | 5 nM | 0.00043 s⁻¹ | 85900 M⁻¹ s⁻¹ | 27 min | 1.8 nM | 31.6
B3 | 0.57 nM | 91 fold | 117 RU | 0.753 nM | 0.00051 s⁻¹ | 677000 M⁻¹ s⁻¹ | 23 min | 42 RU | 11 nM | 0.00182 s⁻¹ | 166000 M⁻¹ s⁻¹ | 6 min | 1.9 nM | 21
